Results as given in patent publication US20240309045A1, “NLRP3 INFLAMMASOME INHIBITORY PEPTIDE FOR TREATMENT OF INFLAMMATORY DISEASES” (AJOU UNIVERSITY INDUSTRY-ACADEMIC COOPERATION FOUNDATION, priority 2021, published 2024).

Columns and labels:
[1] = target: T1, NLRP3 inflammasome (Homo sapiens, UniProt Q96P20+Q9ULZ3); test: NLRP3-mediated IL-1β secretion ELISA (LPS priming, nigericin activation); type: cell-based; details: THP1-derived macrophages, LPS-primed, peptide 1 to 20 μM (FIG. 1E)
T1 construct: THP1-derived macrophages were primed with LPS (10 ng/ml) for 3 hours and then treated with peptides; endogenous in cells; host or cells: THP1-derived macrophages
Procedure: (§1) THP1-derived macrophages were seeded at a density of […] in a 96-well plate (BD Biosciences) and grown overnight. The next day, the cells were primed with LPS (Sigma-Aldrich) at a concentration of 10 ng/ml or human tumor necrosis factor alpha (TNF-α; R&D Systems, Minneapolis, Minn., USA) at a concentration of 100 ng/ml for 3 hours, and then treated with peptides at different concentrations for 1 hour. In order to activate the NLRP3 pathway, LPS-primed cells were stimulated for 2 hours with […] nigericin (Invivogen, Carlsbad, CA, USA), which is a known NLRP3 activator. After 6 hours of treatment, the secretion levels of IL-1β and IL-18 were evaluated using a Human IL-1β Uncoated ELISA Kit (Invitrogen) and a Human IL-18 ELISA kit (RayBiotech, Norcross, GA, USA), respectively. The secretion levels of IL-8 and TNF-α were analyzed using a Human IL-8 ELISA kit and a TNF-α ELISA Kit (Invitrogen), respectively. In all experiments, absorbance was analyzed at an appropriate wavelength using a microplate spectrophotometry system (Molecular Devices Inc., Silicon Valley, CA, USA).
(§2) Overall, activation of the NLRP3 inflammasome results not only in cleavage of pro-IL-1β and pro-IL-18, but also in release of active IL-1β and IL-18 and other soluble inflammatory mediators. Thus, NIP was mainly evaluated for regulatory effect on the NLPR3-mediated pathway through the assessment of IL-1β secretion. […]

[2] = target: T1, NLRP3 inflammasome; test: NLRP3-mediated IL-18 secretion ELISA (LPS priming, nigericin activation); type: cell-based; details: THP1-derived macrophages, LPS-primed, nigericin (FIG. 1E, 4B)
Procedure: as §1, §2

T1 sequence (Q96P20 whole entry): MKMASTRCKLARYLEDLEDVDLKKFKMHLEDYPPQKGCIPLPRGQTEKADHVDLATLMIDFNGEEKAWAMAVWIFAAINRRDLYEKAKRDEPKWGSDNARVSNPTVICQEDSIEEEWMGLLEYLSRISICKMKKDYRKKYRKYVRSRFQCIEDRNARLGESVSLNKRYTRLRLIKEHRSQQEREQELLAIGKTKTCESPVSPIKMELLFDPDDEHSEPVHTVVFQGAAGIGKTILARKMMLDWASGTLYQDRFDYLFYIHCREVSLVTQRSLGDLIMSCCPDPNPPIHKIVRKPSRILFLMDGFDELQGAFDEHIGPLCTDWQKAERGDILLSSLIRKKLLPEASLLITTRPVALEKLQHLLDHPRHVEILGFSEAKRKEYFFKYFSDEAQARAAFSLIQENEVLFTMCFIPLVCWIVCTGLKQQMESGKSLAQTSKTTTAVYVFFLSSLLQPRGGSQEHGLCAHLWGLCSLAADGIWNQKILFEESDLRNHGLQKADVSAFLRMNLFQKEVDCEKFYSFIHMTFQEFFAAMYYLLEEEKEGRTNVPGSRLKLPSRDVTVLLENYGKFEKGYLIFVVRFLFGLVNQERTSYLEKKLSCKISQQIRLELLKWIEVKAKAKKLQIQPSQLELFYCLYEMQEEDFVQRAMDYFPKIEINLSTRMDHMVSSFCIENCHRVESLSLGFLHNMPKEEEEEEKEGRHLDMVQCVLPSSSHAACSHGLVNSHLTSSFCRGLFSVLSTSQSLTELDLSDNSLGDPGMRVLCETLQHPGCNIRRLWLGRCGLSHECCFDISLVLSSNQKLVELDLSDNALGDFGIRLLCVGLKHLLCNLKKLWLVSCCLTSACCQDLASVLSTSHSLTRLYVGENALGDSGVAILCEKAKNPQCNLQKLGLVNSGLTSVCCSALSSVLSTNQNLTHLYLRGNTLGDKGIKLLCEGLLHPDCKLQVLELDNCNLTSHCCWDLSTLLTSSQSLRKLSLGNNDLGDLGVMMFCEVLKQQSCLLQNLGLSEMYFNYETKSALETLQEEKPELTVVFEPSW
T1 sequence (Q9ULZ3 whole entry): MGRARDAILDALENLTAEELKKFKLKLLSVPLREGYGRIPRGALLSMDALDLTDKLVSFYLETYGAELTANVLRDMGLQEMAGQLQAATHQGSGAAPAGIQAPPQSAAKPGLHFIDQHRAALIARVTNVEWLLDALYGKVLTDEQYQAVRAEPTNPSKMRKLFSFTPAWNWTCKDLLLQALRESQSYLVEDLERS

Inhibition of NLPR3-mediated IL-1β secretion [1]: did not have the ability to inhibit
Inhibition of IL-18 secretion [2]: did not have the ability to inhibit
Sequence: DALDLTDKLVS (NLRP3/ASC-inhibitory peptide 7 (NIP7)) [evaluated fused at the N-terminus with penetratin]
